{"source": "the nanobody polyreactivity screen of Harvey et al. (2022)", "data": [{"test": "yeast display, Sf9 membrane polyspecificity reagent, FACS + sequencing; frameworks hold sequencing errors", "procedure,_shortened": "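Genes from sorted yeast were amplified by colony PCR, read by MiSeq 2 × 250 sequencing and filtered on CDR length. These cells carried a synthetic nanobody library in Saccharomyces cerevisiae BJ5465 and were sorted by FACS into low and high (top ~1%) gates on anti-HA and streptavidin fluorescence. Polyreactivity is labelled according to the gate of origin.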", "values": [{"sequence": "QVQLQESVGGPVLAGGSLRLSCGASGTIFVRLDMGWYRQARGKVREFVATIGSGSSTYYADSVKGSFTISRDNVKNTVYLKMNSLKPEDTAVYYCAVYAAEQSRHYYWDQGTQVTVSS", "polyreactivity (PSR sort gate)": "low polyreactivity"}, {"sequence": "QVQLQGSGGGLVQAGGSLRLSCAASAYIFQNHPMGCNRQAPGKERELVAGIDNGTSTNYADSVNGRFTISRDNAKNTVYLQMNSLKPEDTAVYYCAAAGQADDTLGYWGQGTQVTVSS", "polyreactivity (PSR sort gate)": "low polyreactivity"}, {"sequence": "QVQLQVSGGGLVQAGGSLRLSCAACGSNFLTAEMGWYLQAPGKERELVAAIATGTSTNYADSVKGRFTISRDNAKNTVYLQMNSLKREDTALYYCATYHYWGQGTQVTVSS", "polyreactivity (PSR sort gate)": "low polyreactivity"}, {"sequence": "QVQLRESGAGGRQPAPEMRGERQYFYWSADGLVSQGPGKEREFDAGIDRGTITNYADSVRGRFTISRDNAKNTVYLQMNSLKPEDTAVYYCAVPAYGDPRSYYWGQGTHVTVSS", "polyreactivity (PSR sort gate)": "high polyreactivity"}, {"sequence": "QVQLRESGGGLVQAGGSLRLSCAASGRIFGNYSMGRYRQAPGKEREMVAAISGGGSTYYADSVKGRFTISRDNAKNTVYLQMTSLKPEDTAVYYCADRFLWSVFCRKGGYWGQGTQVTVSS", "polyreactivity (PSR sort gate)": "low polyreactivity"}, {"sequence": "QVQLVASGGGLVQAGGSLLLSCAASGSIFDYNAMGWYRKAPGKERELVAAISSSGGSTYYADSVKGRFTISRDNAKNTVYLQMNSLKPEDTAVYYCNNVSRYILGSGYGYWGQGNQVTVSS", "polyreactivity (PSR sort gate)": "high polyreactivity"}, {"sequence": "QVQLVASGGGLVQAGGSLRFSCAASGRPLSYYAMGWYREAPGKERELVAAISRRGGSTYYADSVKGRFTISRDNAQNTVYIQMNSLKPKDTAVYYCAAETFDYADYIANGSGEYDYWGQGTQVTVSS", "polyreactivity (PSR sort gate)": "high polyreactivity"}, {"sequence": "QVQLVASGGGLVQAGGSLRLSCAASGGTLDYYVMGWYRQAPGKERELVAAISTNGGSTNYADSVKGRFTISRDNAKNTVYLQMNSLKPEDTAVYYCAATSDVYVFLEFDYWGQGTQVTVSS", "polyreactivity (PSR sort gate)": "low polyreactivity"}, {"sequence": "QVQLVASGGGLVQAGGSLRLSSAASGYIFAPNAMGWYRQAPGKERELVAAITFSGGSTSYADSVKGRFTISRDNAKNTVYLQMNSLKPEDTAVYYCNRDDAGIMDYWGLGTQVTVSS", "polyreactivity (PSR sort gate)": "low polyreactivity"}, {"sequence": "QVQLVDSAAGLVQARRSLRLSCAASGRTFPLNVMGWYRLAPGKEREFVAAIRWNGGSTYYADSVKGRFTISRDHAKNTVYLQLNCLIPEDTSVYYCAAQLFRRGRYAGNPMDYWGQGTQVTVSS", "polyreactivity (PSR sort gate)": "high polyreactivity"}, {"sequence": "QVQLVDSAGGLVQSGGSQRLSCAASGSIFHVYPMGCYRQAPGKERELVAAIRRRGGSTYYADSVKGRFTISRDTAKNTVYLQMNSLKPEDTAVYYCAARSVGFYRYDYWGQGTQVTVSS", "polyreactivity (PSR sort gate)": "low polyreactivity"}, {"sequence": "QVQLVDSAVGLVQAGGSLRLSCPASGSIISFYTMGWYRQAPGKERDLVASSTTYADSVKGRFTISRDNAKNTVYLQMNSLKPEVTAVYYCATRHPARRDYWGQGTQVTVSS", "polyreactivity (PSR sort gate)": "low polyreactivity"}, {"sequence": "QVQLVDSGGALVQAGGSLRISCAASGYIFSYKAMGWYRQAPGKERELVAAITSGGSTNYADSVKGRFTISRDNAKNTVYLQMKSLKPEDTAVYYCAAERGDTAYRKYDYWGQGTQVTVSS", "polyreactivity (PSR sort gate)": "low polyreactivity"}, {"sequence": "QVQLVDSGGGLDQAGGSLRLICDASGSIFWWNAMGWYRQAPGKETELVAAINWSTGRTYYADSVKGRFTISRDNAKNTVYLQMNSLKPEDTAVYYCGADVWTPYLISLKSGYDYWGQGTQLTVSS", "polyreactivity (PSR sort gate)": "low polyreactivity"}, {"sequence": "QVQLVDSGGGLDQAGGSLRLSCAASGFTFGDNAMGCYRQAPGKERELVARITGDGSTYYADSVKGRFTISRDNAKNTVYLQMNSLKPEDTAFFYCAADYSPRYTQIEYGYWGQGTQVTVSS", "polyreactivity (PSR sort gate)": "low polyreactivity"}, {"sequence": "QVQLVDSGGGLDQAGGSLRLSCAASGLTFAYNTMGWYRQAPGKERELVADISRSAGSTYYADSVKVRFTISRDNAKNTVFLQMNSLKPDDTAVYYCNAAPYYVLYLLWSSNTYDYWGQGTQVTVSS", "polyreactivity (PSR sort gate)": "high polyreactivity"}, {"sequence": "QVQLVDSGGGLDQAGGSLRLSCAASGRIFGLYAMVWYRTAPGKEKELVAHIDVSDGSTYYADSVKGRFTISLDTAKNTVYLQMNRLKPEDTAVYYCNAEDSSRWYDWYLHDYWGQGTQVTVSS", "polyreactivity (PSR sort gate)": "high polyreactivity"}, {"sequence": "QVQLVDSGGGLGQAGGSLRLSCAASGSIFTTNAMGCYRHAPGKERELVAASSSRGGSTYYADSVKGRFTISRDNAKNTVYLQMNSLKPEDTAVYYCAARYRWPIPGTNYEYWGQGTQVTVSS", "polyreactivity (PSR sort gate)": "low polyreactivity"}, {"sequence": "QVQLVDSGGGLVHAGGSLRLSCAASGSTLIGNAMGWYRQAPWKERELVARISLRGGRTYYADSVKGRFTISRDNAKHTVYLQMNSLKPEDTAVYYCNRGGFSRYYYWGQGTQVTVSS", "polyreactivity (PSR sort gate)": "low polyreactivity"}, {"sequence": "QVQLVDSGGGLVQAEGSLRLSCAPSGIIFGGYAMGWYIPAPGKERELVAAISRSGGSTYYADSVKGRFTISRDNAKNTVYLQMNSLKPEDTAVYYCAADGGAYEYDYWGQGTQVTVSS", "polyreactivity (PSR sort gate)": "high polyreactivity"}, {"sequence": "QVQLVDSGGGLVQAGASLPLSCAASGATFYIYARGWNIQAPGKERELVAANTWSGGRTFYADSVKGRFTMSRDNAKNTDYLQMNSLKPEDTAVYYCANRVRTGSVGNFNYWGQGTQVNVSS", "polyreactivity (PSR sort gate)": "high polyreactivity"}, {"sequence": "QVQLVDSGGGLVQAGGSLGLSCAASGSIVKYYAMGWYRQAPGKEREVVAAISSIGGRPYYADSVKGRFTISRDNAKNTVYLQRNSLKPEDTSVFYCARRFRRTGESEYEYWGQGTQVTVSS", "polyreactivity (PSR sort gate)": "high polyreactivity"}, {"sequence": "QVQLVDSGGGLVQAGGSLLLSCAASGSTINHKDMGLYRQAPGKERELVAAISWSGGSTTYADSVKGRFTISRDNAKNTVYLQMNSLKPEDTAVYYCAADWYYWGFIFDYWGQGTQVTVSS", "polyreactivity (PSR sort gate)": "high polyreactivity"}, {"sequence": "QVQLVDSGGGLVQAGGSLRISCAATGSIFGPNAMGWNRQPPGKERELVAAISRRGGTTYYADSVKGRFTISRDNSKNTFYLQMNSLKPEDTAVYYCATVLYKAYNDYGYWGQGTQVTVSS", "polyreactivity (PSR sort gate)": "high polyreactivity"}, {"sequence": "QVQLVDSGGGLVQAGGSLRLICAASGSISSYYAMVWYRQAPGKERELVAAITSGGRTYYADSVKGRFTISRDNAKNTVYLQMNSLKPEDTAVYYCNARTARNPIKGRASYYWGQGTQVTVSS", "polyreactivity (PSR sort gate)": "high polyreactivity"}, {"sequence": "QVQLVDSGGGLVQAGGSLRLRCAASGSTFGIYAMGWYRQAPGKERELVAAISWRGGRTYYADSVKGRFTITRDNAKNNVYFQMNSLKPEDTAVYYCAADYRYLWEGYDYWGQGTQVTVSS", "polyreactivity (PSR sort gate)": "low polyreactivity"}, {"sequence": "QVQLVDSGGGLVQAGGSLRLRCAASGSTFRRYAMGWYRQAPGKERELVAAISNRDGSTYYADSVKGRFTISRDNAKNTVYLQMNSLKADDTAVYYCNAYGYGDYSFLKYRFEYDYWGQGTQVTVSS", "polyreactivity (PSR sort gate)": "low polyreactivity"}, {"sequence": "QVQLVDSGGGLVQAGGSLRLRCAASGSTYHYAMAGYRQAPGKERELVASITWRGDTTYYADSVKARFTISRDNAMNTVYFHMNSLKPEDSAVYYCAAYVRRCFAWGQGTQVTVSS", "polyreactivity (PSR sort gate)": "high polyreactivity"}, {"sequence": "QVQLVDSGGGLVQAGGSLRLSCAASASTFEYYTMGWYRHAPGKERQLVASIRSSGTSTYYADCVKGRFTISRDNAKNTVYLQMNSLKPEDTAVSYWAATVLSIYVSSYGFWGQGTQVTVSS", "polyreactivity (PSR sort gate)": "high polyreactivity"}, {"sequence": "QVQLVDSGGGLVQAGGSLRLSCAASGFIFDVYAMGGYRQAPGKERQLVAAISVSSTNYADSVKGRFTISRDNAKNTVYLQMNSLKPEDTAVSYCAADTYTYFLASYLYGQYDYWGQGTQVTVSW", "polyreactivity (PSR sort gate)": "low polyreactivity"}, {"sequence": "QVQLVDSGGGLVQAGGSLRLSCAASGFIFIRNARGWYRQAPGKESQLVAAIRYRGGNTYYADSVKGRFTISRDNAKNTVYLQMNSLKPEDTAVYYCNAAGSYYTRSDSGYWGQGTQVTVSS", "polyreactivity (PSR sort gate)": "high polyreactivity"}, {"sequence": "QVQLVDSGGGLVQAGGSLRLSCAASGFIFPVYTMGWYRQAPGKERELVAAITQIGGSTQYADSVKGRFTISRDNAKNTVYLQMNSLKPEDTAVYYCAVDYDSYWYGTYVNEYVYWGQGTQVTVSS", "polyreactivity (PSR sort gate)": "low polyreactivity"}, {"sequence": "QVQLVDSGGGLVQAGGSLRLSCAASGFIFTDYAMGLYRQAPGQEREFVAAIDWSGGNTYYADSVTGRFTISRDNAKNTVYLQMNSLKPEDTAVFYCAASGSAREYVYWGQGTQVTVSS", "polyreactivity (PSR sort gate)": "low polyreactivity"}, {"sequence": "QVQLVDSGGGLVQAGGSLRLSCAASGFIFWYYAMGWYRQEPRKERELVAAITSGGNTNYADSVKGRFTISRDNAKNTVYLQMNSLKPEDTAVYYCATGRASGREHDSWGQGTQVTVSS", "polyreactivity (PSR sort gate)": "low polyreactivity"}, {"sequence": "QVQLVDSGGGLVQAGGSLRLSCAASGFIFYKYAMGWYRQATGKERELVAAISKRGGSTYYADSVKGRFTISRDNAKNTVYLQMNSLKPEYTAVYDCATDGGYSDTVRYVASDYWGQGTQVTVSS", "polyreactivity (PSR sort gate)": "high polyreactivity"}, {"sequence": "QVQLVDSGGGLVQAGGSLRLSCAASGFILYFNAMGWYRQAHGKERELVAAISRGDGSTYADSVKGRFTISRDNAKNTVYLQMNSLKAQDTAVYYCNAGLGVVVTHYVGYGYDSWGQGTQVTVSS", "polyreactivity (PSR sort gate)": "low polyreactivity"}, {"sequence": "QVQLVDSGGGLVQAGGSLRLSCAASGFNFASYALGWYRPAPGKERELVAAISQSGGRTYYADSVKGRFTISRDNANNTVYLQMNSLKPEDTAVYYCAAPSYRYIYYSPGTGLGYWGQGTQVTVSS", "polyreactivity (PSR sort gate)": "high polyreactivity"}, {"sequence": "QVQLVDSGGGLVQAGGSLRLSCAASGFTFTPNAMGWYRQAPGTERELVAAISRRGGSTYYADSVKGRFTISRDNAKNTVYLQMNSLKPEDTAVYYCAASSSGRGGYWGQGTQVTVSS", "polyreactivity (PSR sort gate)": "high polyreactivity"}, {"sequence": "QVQLVDSGGGLVQAGGSLRLSCAASGFTIPYYAMGWYRQAPGKERELVAAISSGGRTNYADSVKGRFTISRDNAKNTVYLPMNSLKPEDTAVYYCATRSYVFAWEFYYWGQGTQVTVSS", "polyreactivity (PSR sort gate)": "high polyreactivity"}, {"sequence": "QVQLVDSGGGLVQAGGSLRLSCAASGGILKCYYMGRYRQATGKEMEFVSPITWSAGSTYYADSVKGRFTISRDNAKNTVYLQMNSLKPEDTAVHYCNVDWYPRGPHTVVFYDVSPYDYWGQGTQVTVSS", "polyreactivity (PSR sort gate)": "high polyreactivity"}, {"sequence": "QVQLVDSGGGLVQAGGSLRLSCAASGIILYPYAMGWYRQAPGKERELVAAISWSGGSTYYADSVKGRFTISRDNAKNTVYLQMNSLKPEDTAVYYCAARPRRRYYGYDSWGQGTQVTVSS", "polyreactivity (PSR sort gate)": "high polyreactivity"}, {"sequence": "QVQLVDSGGGLVQAGGSLRLSCAASGITFNSYVMGLYRQAPGKERELVAVISRGGGITYYADSVKGRFTISRDNAKNTVYLQMNSLKPEDTAVSYCAADHTHGYVLYYNDNYWGQGTQVTVSS", "polyreactivity (PSR sort gate)": "high polyreactivity"}, {"sequence": "QVQLVDSGGGLVQAGGSLRLSCAASGITFRTYAMGWYRQEPGKERELVAAISGSSTSTYYADSVKGRFTISRDNAKNTVYLQMNSLKPEDTAVYYCAAGYRVSVYRYYYWGQGTQVTVSS", "polyreactivity (PSR sort gate)": "high polyreactivity"}]}]}
